Experimental data from patent publication US20060149521A1 (University of California, published 2006).

Columns and labels:
[1] = target: GST-GRIP1 (GRIP1 amino acids 563-1121) (mouse) (UniProt Q61026); test: GST-GRIP1 pull-down of in vitro translated GR
[2] = target: GRIP1 563-767 His6 GST fusion protein (mouse) (UniProt Q61026); test: GST-GRIP1 (563-767) pull-down
[3] = target: hTRβ ligand binding domain (hTRβ LBD), in vitro translated, as used in the GST-GRIP1 binding and peptide competition assays (human) (UniProt P10828); test: titration of the amount of GST-GRIP1 fragment in the pull-down of TR; assigned to the fragment with only NR-box 3 functional
[4] = target: hTRβ ligand binding domain (hTRβ LBD), in vitro translated, as used in the GST-GRIP1 binding and peptide competition assays (human) (UniProt P10828); test: GST-GRIP1 (563-767) mutant pull-down of in vitro translated TR
[5] = target: glucocorticoid receptor (GR), full length; test: peptide competition of GR binding to GRIP1
[6] = target: hTRβ ligand binding domain (hTRβ LBD), in vitro translated, as used in the GST-GRIP1 binding and peptide competition assays (human) (UniProt P10828); test: peptide competition of hTRβ LBD binding to GST-GRIP1 (563-767) beads
[7] = target: hTRβ ligand binding domain (hTRβ LBD), in vitro translated, as used in the GST-GRIP1 binding and peptide competition assays (human) (UniProt P10828); test: peptide competition (FIG. 11c)
[8] = target: hTRβ ligand binding domain (hTRβ LBD), in vitro translated, as used in the GST-GRIP1 binding and peptide competition assays (human) (UniProt P10828); test: titration of the amount of GST-GRIP1 fragment in the pull-down of TR; assigned to the fragment with only NR-box 2 functional
[9] = target: hTRβ ligand binding domain (hTRβ LBD), in vitro translated, as used in the GST-GRIP1 binding and peptide competition assays (human) (UniProt P10828); test: titration of the amount of GST-GRIP1 fragment in the pull-down of TR
[10] = target: T1, hTRβ ligand binding domain (hTRβ LBD), in vitro translated, as used in the GST-GRIP1 binding and peptide … (human, UniProt P10828 202-461, limits assumed, [35S]-methionine labelled (in vitro translated)); test: peptide competition of hTRβ LBD binding to GST-GRIP1 (563-767) beads
T1 construct: domain: LBD; also called TR LBD; TR-LBD
T1 sequence (looked up): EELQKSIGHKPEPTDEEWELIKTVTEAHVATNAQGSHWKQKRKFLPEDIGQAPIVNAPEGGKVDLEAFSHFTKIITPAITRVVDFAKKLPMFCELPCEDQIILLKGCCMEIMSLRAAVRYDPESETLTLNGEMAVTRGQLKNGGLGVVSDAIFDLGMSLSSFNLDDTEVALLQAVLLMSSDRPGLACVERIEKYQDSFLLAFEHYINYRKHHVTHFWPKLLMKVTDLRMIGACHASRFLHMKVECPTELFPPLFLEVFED
Procedure: Expression was quantified by phosphoimager analysis (BAS2000, Fuji). […] Binding was performed in the binding buffer described above supplemented with 20 μg/ml BSA and appropriate hormone. […] The reaction was incubated at 4° C. under rotation for 2 hours. In case of competition experiments, the appropriate concentration of peptides were added to the reaction before addition of receptors. […] Beads were washed five times with 200 μl binding buffer+BSA at 4° C. before elution of the bound proteins in 20 μl SDS loading buffer. Eluted beads and input labeled protein were subjected to SDS-PAGE. The fraction of bound nuclear receptors was determined by phosphoimager analysis.

GRIP1, full-length [11] = target: T2, GRIP1, full-length (mouse, UniProt Q61026 5-1462, limits assumed, [35S]-Met labelled in the pull-down assays (in vitro translated from pSG5-GRIP1)); test: cell-based or functional assay
[12] = target: T3, Human TRβ LBD (His6-E202-D461), purified, liganded with T3 (human, UniProt P10828 202-461); test: cocrystallisation and X-ray structure, 3.6 Å, T3-liganded
T3 construct: range 202-461; Protein of the cocrystal; also called hTRβ LBD; hTR LBD
T3 sequence: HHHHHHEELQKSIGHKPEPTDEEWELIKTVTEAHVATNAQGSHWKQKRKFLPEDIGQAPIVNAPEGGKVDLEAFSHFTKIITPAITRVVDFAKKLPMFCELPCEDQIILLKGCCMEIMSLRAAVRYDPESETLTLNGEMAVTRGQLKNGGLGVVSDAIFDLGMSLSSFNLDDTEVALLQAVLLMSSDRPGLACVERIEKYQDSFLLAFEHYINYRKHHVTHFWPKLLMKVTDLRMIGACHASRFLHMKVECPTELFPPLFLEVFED
Procedure: Possible rotation function solutions were calculated using normalized amplitudes in AMORE from a model of hTRβ LBD with the ligand, T₃, omitted; translation function solutions were subsequently determined using TFFC for the two rotation solutions with the highest correlation coefficients. […] After rigid body refinement of the two hTRβ LBD molecules, electron density maps were calculated.

GRIP1, full-length [13] = target: T2, GRIP1, full-length; test: GST-hERα LBD pull-down of 35S-GRIP1, 1 µM DES
Procedure: (§1) The wild-type and mutant GST-hERα LBDs were expressed in BL21(DE3) cells. […] Cleared extracts containing the GST-hERα LBDs were incubated in buffer alone (50 mM Tris, pH 7.4, 150 mM NaCl, 2 mM EDTA, 1 mM DTT, 0.5% NP-40 and a protease inhibitor cocktail) or with 1 μM of either DES or OHT for 1 hour at 4° C. Extract samples containing thirty pmol of GST-LBD were then incubated with 10 μl glutathioneSepharose-4B beads (Pharmacia) for 1 hour at 4° C. […] Immobilized GSThERα LBDs were incubated for 2.5 hours with 2.5 μl aliquots of crude translation reaction mixture diluted in 300 μl of Tris-buffered saline (TBS). After five washes in TBS containing 0.05% NP-40, proteins were eluted by boiling the beads for 10 minutes in sample buffer.

GRIP1, full-length [14] = target: T2, GRIP1, full-length; test: GST-hERα LBD pull-down of 35S-GRIP1, no ligand or 1 µM OHT
Procedure: as §1

T2 sequence (Q61026 5-1462 limits assumed): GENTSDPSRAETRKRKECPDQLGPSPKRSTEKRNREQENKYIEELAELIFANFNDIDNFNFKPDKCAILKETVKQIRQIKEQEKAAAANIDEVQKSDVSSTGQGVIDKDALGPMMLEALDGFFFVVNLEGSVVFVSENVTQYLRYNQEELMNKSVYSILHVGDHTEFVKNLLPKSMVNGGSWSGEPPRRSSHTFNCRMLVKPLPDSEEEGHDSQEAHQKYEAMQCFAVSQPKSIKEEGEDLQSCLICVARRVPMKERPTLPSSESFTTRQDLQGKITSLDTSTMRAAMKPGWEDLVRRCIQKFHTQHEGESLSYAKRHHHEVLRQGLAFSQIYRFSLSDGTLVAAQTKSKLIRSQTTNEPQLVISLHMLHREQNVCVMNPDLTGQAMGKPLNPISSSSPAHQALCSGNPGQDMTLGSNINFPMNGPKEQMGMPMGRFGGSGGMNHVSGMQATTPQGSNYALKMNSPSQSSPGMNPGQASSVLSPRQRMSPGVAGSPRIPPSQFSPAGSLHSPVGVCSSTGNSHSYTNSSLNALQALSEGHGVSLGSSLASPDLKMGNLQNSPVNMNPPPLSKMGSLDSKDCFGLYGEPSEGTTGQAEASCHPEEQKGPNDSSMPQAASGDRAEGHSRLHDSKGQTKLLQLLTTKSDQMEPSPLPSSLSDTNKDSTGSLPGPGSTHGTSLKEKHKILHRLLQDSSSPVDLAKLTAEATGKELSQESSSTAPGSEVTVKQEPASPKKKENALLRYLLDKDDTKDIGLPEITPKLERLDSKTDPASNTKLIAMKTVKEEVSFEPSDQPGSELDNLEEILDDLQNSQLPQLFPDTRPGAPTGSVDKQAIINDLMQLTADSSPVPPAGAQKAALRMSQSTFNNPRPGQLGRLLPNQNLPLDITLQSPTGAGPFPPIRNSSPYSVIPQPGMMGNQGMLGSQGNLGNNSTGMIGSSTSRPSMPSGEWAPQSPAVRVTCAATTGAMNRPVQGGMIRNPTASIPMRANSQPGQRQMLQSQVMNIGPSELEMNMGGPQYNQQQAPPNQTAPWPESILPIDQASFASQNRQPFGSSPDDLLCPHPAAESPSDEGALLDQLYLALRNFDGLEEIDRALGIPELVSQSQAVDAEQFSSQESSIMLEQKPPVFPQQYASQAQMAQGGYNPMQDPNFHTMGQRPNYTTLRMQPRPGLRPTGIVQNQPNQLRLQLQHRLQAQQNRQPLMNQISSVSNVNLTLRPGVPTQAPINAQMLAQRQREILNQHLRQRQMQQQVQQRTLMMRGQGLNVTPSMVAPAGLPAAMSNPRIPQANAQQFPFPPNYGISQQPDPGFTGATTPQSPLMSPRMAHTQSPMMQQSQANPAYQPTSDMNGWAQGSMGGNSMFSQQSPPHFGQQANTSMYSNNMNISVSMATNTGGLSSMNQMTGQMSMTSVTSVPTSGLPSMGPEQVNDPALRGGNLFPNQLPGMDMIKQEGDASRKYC
glucocorticoid receptor (GR), full length, sequence (P06536 whole entry, the tested form may be a part): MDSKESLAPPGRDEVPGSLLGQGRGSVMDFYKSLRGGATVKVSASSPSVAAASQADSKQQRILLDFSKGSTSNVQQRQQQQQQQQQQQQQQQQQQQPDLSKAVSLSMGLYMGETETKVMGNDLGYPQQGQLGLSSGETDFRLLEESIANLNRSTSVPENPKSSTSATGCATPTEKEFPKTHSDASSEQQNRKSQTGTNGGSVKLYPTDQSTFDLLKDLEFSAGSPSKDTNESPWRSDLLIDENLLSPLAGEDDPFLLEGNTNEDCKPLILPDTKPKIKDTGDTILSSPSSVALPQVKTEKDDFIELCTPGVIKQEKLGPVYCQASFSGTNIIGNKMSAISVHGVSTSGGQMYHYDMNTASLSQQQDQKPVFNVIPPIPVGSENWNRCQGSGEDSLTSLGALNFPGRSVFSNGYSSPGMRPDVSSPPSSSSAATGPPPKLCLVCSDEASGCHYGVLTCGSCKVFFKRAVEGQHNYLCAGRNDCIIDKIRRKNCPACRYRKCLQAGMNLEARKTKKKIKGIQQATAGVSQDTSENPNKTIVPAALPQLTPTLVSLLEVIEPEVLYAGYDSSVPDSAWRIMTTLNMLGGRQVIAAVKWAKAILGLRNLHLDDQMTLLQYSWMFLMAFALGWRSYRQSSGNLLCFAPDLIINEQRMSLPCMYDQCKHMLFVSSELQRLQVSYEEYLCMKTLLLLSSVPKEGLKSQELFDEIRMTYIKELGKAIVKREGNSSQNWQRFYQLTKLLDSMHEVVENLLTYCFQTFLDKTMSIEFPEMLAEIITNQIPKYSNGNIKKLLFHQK
GRIP1 563-767 His6 GST fusion protein (mouse), sequence (Q61026 other isoform, or with tags, fused parts or gaps): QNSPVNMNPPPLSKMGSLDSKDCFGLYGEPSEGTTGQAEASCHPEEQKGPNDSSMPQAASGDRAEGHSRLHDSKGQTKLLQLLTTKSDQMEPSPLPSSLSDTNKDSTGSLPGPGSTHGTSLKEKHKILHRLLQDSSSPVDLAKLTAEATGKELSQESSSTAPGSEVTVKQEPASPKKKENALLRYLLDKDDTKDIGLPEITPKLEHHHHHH

With “glucocorticoid receptor (GR), full length” the fold increase of binding against GRIP1 (563-767) [1] was 3 fold and the affinity as a fraction of that of TR [2] was 0.2 fold of TR.

With “GST-GRIP1 (563-767) His6 with non-functional NR-box 2 (hydrophobic residues of NR-box 2 replaced with alanine) (from UniProt Q61026 563-767)” the EC50 [3] was 4 µM and the loss of TR binding [4] was 50%.

“peptide containing the VP16 binding site (FxxAL motif)” was tested, and the fold weaker binding than a peptide containing NR-box 3 [5] was 10 fold.

Molecule peptide containing GRIP1 NR-box 1 has an EC50 [6] of 130 µM.

“NR-box 2 peptide with the isoleucine of NR-box 2 replaced by phenylalanine” gave a fold reduction of affinity against the NR-box 2 peptide [7] of 10 fold.

For “peptide containing the p53 binding site (FxxLW motif)”, the fold weaker binding than a peptide containing NR-box 3 [5] was 10 fold.

In the case of “GST-GRIP1 (563-767) His6 with non-functional NR-box 3 (hydrophobic residues of NR-box 3 replaced with alanine) (from UniProt Q61026 563-767)”, the EC50 [8] is reported as 1000 nM and the fold stronger binding of TR for NR-box 2 over NR-box 3 [9] is reported as 4 fold.

B1: GRIP1 NR-box 2 peptide EKHKILHRLLQDS (peptide)
peptide: EKHKILHRLLQDS
notes: also called original NR-box 2 peptide
For B1, the EC50 [10] was 1500 nM.

B2: GRIP1 NR-box 3 peptide ENALLRYLLDKDD (peptide)
peptide: ENALLRYLLDKDD
For B2, the EC50 [10] was 4000 nM.

B3: human thyroid hormone receptor β1 (hTRβ1), full-length 461 amino acids, wild type (receptor, UniProt P10828 1-461, looked up)
chain: MTPNSMTENGLTAWDKPKHCPDREHDWKLVGMSEACLHRKSHSERRSTLKNEQSSPHLIQTTWTSSIFHLDHDDVNDQSVSSAQTFQTEEKKCKGYIPSYLDKDELCVVCGDKATGYHYRCITCEGCKGFFRRTIQKNLHPSYSCKYEGKCVIDKVTRNQCQECRFKKCIYVGMATDLVLDDSKRLAKRKLIEENREKRRREELQKSIGHKPEPTDEEWELIKTVTEAHVATNAQGSHWKQKRKFLPEDIGQAPIVNAPEGGKVDLEAFSHFTKIITPAITRVVDFAKKLPMFCELPCEDQIILLKGCCMEIMSLRAAVRYDPESETLTLNGEMAVTRGQLKNGGLGVVSDAIFDLGMSLSSFNLDDTEVALLQAVLLMSSDRPGLACVERIEKYQDSFLLAFEHYINYRKHHVTHFWPKLLMKVTDLRMIGACHASRFLHMKVECPTELFPPLFLEVFED
modifications: [35S]-Met labelled (in vitro translated)
B3 was tested, and the “T3-dependent reporter gene activity in HeLa cells” value (GRIP1, full-length [11]) was 5 fold.

B4: GRIP1 NR-box 2 peptide 686-KHKILHRLLQDSS-698 (peptide)
peptide: KHKILHRLLQDSS
notes: also called GRIP1 site 2 peptide
B4: binds [12].

B5: GST-hERα LBD (282-595) E542K (receptor)
chain: SAGDMRAANLWPSPLMIKRSKKNSLALSLTADQMVSALLDAEPPILYSEYDPTRPFSEASMMGLLTNLADRELVHMINWAKRVPGFVDLTLHDQVHLLECAWLEILMIGLVWRSMEHPGKLLFAPNLLLDRNQGKCVEGMVEIFDMLLATSSRFRMMNLQGEEFVCLKSIILLNSGVYTFLSSTLKSLEEKDHIHRVLDKITDTLIHLMAKAGLTLQQQHQRLAQLLLILSHIRHMSNKGMEHLYSMKCKNVVPLYDLLLKMLDAHRLHAPTSRGGASVEETDQSHLATAGSTSSHSLQKYYITGEAEGFPATV
notes: not shown: GST carrier (pGEX-3X) at the N end and its linker
B5: no binding (GRIP1, full-length [13]).

B6: GST-hERα LBD (282-595) I358R (receptor)
chain: SAGDMRAANLWPSPLMIKRSKKNSLALSLTADQMVSALLDAEPPILYSEYDPTRPFSEASMMGLLTNLADRELVHMRNWAKRVPGFVDLTLHDQVHLLECAWLEILMIGLVWRSMEHPGKLLFAPNLLLDRNQGKCVEGMVEIFDMLLATSSRFRMMNLQGEEFVCLKSIILLNSGVYTFLSSTLKSLEEKDHIHRVLDKITDTLIHLMAKAGLTLQQQHQRLAQLLLILSHIRHMSNKGMEHLYSMKCKNVVPLYDLLLEMLDAHRLHAPTSRGGASVEETDQSHLATAGSTSSHSLQKYYITGEAEGFPATV
notes: as for B5
B6: no binding (GRIP1, full-length [14]).

B7: GST-hERα LBD (282-595) K362A (receptor)
chain: SAGDMRAANLWPSPLMIKRSKKNSLALSLTADQMVSALLDAEPPILYSEYDPTRPFSEASMMGLLTNLADRELVHMINWAARVPGFVDLTLHDQVHLLECAWLEILMIGLVWRSMEHPGKLLFAPNLLLDRNQGKCVEGMVEIFDMLLATSSRFRMMNLQGEEFVCLKSIILLNSGVYTFLSSTLKSLEEKDHIHRVLDKITDTLIHLMAKAGLTLQQQHQRLAQLLLILSHIRHMSNKGMEHLYSMKCKNVVPLYDLLLEMLDAHRLHAPTSRGGASVEETDQSHLATAGSTSSHSLQKYYITGEAEGFPATV
notes: as for B5
B7: no binding (GRIP1, full-length [13]).

B8: GST-hERα LBD (282-595) L539R (receptor)
chain: SAGDMRAANLWPSPLMIKRSKKNSLALSLTADQMVSALLDAEPPILYSEYDPTRPFSEASMMGLLTNLADRELVHMINWAKRVPGFVDLTLHDQVHLLECAWLEILMIGLVWRSMEHPGKLLFAPNLLLDRNQGKCVEGMVEIFDMLLATSSRFRMMNLQGEEFVCLKSIILLNSGVYTFLSSTLKSLEEKDHIHRVLDKITDTLIHLMAKAGLTLQQQHQRLAQLLLILSHIRHMSNKGMEHLYSMKCKNVVPLYDRLLEMLDAHRLHAPTSRGGASVEETDQSHLATAGSTSSHSLQKYYITGEAEGFPATV
notes: as for B5
B8: no binding (GRIP1, full-length [14]).

B9: GST-hERα LBD (282-595) V376R (receptor)
chain: SAGDMRAANLWPSPLMIKRSKKNSLALSLTADQMVSALLDAEPPILYSEYDPTRPFSEASMMGLLTNLADRELVHMINWAKRVPGFVDLTLHDQRHLLECAWLEILMIGLVWRSMEHPGKLLFAPNLLLDRNQGKCVEGMVEIFDMLLATSSRFRMMNLQGEEFVCLKSIILLNSGVYTFLSSTLKSLEEKDHIHRVLDKITDTLIHLMAKAGLTLQQQHQRLAQLLLILSHIRHMSNKGMEHLYSMKCKNVVPLYDLLLEMLDAHRLHAPTSRGGASVEETDQSHLATAGSTSSHSLQKYYITGEAEGFPATV
notes: as for B5
B9: no binding (GRIP1, full-length [14]).
